We go through three substances from PMC4221194.

Common to all, as to experiment: SEC; Superdex 75 10/300 GL column, after Ni-NTA purification; absorbance at 280 nm; proteins eluted at about 80 kDa
In general terms: Size exclusion chromatography separates by hydrodynamic size, large species first.

For assay [1], the target named is D22G-Angiogenin-GST (human Angiogenin D22G fused to GST, with a C-terminal hexa-histidine tag) (human) (UniProt P03950).
The target of assay [2] is wild-type Angiogenin-GST (human Angiogenin fused to GST, with a C-terminal hexa-histidine tag) (human) (UniProt P03950).
The target of assay [3] is L35P-Angiogenin-GST (human Angiogenin L35P fused to GST, with a C-terminal hexa-histidine tag) (human) (UniProt P03950).

As for “D22G-Angiogenin-GST (human Angiogenin D22G fused to GST, with a C-terminal hexa-histidine tag) (from UniProt P03950 25-147) (enzyme)”, in assay [1], the stoichiometry N turned out to be 2. Substance “wild-type Angiogenin-GST (human Angiogenin fused to GST, with a C-terminal hexa-histidine tag) (from UniProt P03950 25-147) (enzyme)” yielded a stoichiometry N in assay [2] of 2. Turning to “L35P-Angiogenin-GST (human Angiogenin L35P fused to GST, with a C-terminal hexa-histidine tag) (from UniProt P03950 25-147) (enzyme)”, in assay [3], the stoichiometry N came out at 2.

What is called stoichiometry N is a count of units in the complex or per binding partner.
